Results reported in patent publication US20160158293A1, “Treatment of Ocular Conditions Using Progenitor Cells” (JANSSEN BIOTECH, INC., priority 2014, published 2016).

B1: Nogo-A: myelin protein Nogo-A (R&D Systems), growth-inhibiting coating (protein, UniProt Q9NQC3 1-1192, looked up)
Reticulon-4: MEDLDQSPLVSSSDSPPRPQPAFKYQFVREPEDEEEEEEEEEEDEDEDLEELEVLERKPAAGLSAAPVPTAPAAGAPLMDFGNDFVPPAPRGPLPAAPPVAPERQPSWDPSPVSSTVPAPSPLSAAAVSPSKLPEDDEPPARPPPPPPASVSPQAEPVWTPPAPAPAAPPSTPAAPKRRGSSGSVDETLFALPAASEPVIRSSAENMDLKEQPGNTISAGQEDFPSVLLETAASLPSLSPLSAASFKEHEYLGNLSTVLPTEGTLQENVSEASKEVSEKAKTLLIDRDLTEFSELEYSEMGSSFSVSPKAESAVIVANPREEIIVKNKDEEEKLVSNNILHNQQELPTALTKLVKEDEVVSSEKAKDSFNEKRVAVEAPMREEYADFKPFERVWEVKDSKEDSDMLAAGGKIESNLESKVDKKCFADSLEQTNHEKDSESSNDDTSFPSTPEGIKDRSGAYITCAPFNPAATESIATNIFPLLGDPTSENKTDEKKIEEKKAQIVTEKNTSTKTSNPFLVAAQDSETDYVTTDNLTKVTEEVVANMPEGLTPDLVQEACESELNEVTGTKIAYETKMDLVQTSEVMQESLYPAAQLCPSFEESEATPSPVLPDIVMEAPLNSAVPSAGASVIQPSSSPLEASSVNYESIKHEPENPPPYEEAMSVSLKKVSGIKEEIKEPENINAALQETEAPYISIACDLIKETKLSAEPAPDFSDYSEMAKVEQPVPDHSELVEDSSPDSEPVDLFSDDSIPDVPQKQDETVMLVKESLTETSFESMIEYENKEKLSALPPEGGKPYLESFKLSLDNTKDTLLPDEVSTLSKKEKIPLQMEELSTAVYSNDDLFISKEAQIRETETFSDSSPIEIIDEFPTLISSKTDSFSKLAREYTDLEVSHKSEIANAPDGAGSLPCTELPHDLSLKNIQPKVEEKISFSDDFSKNGSATSKVLLLPPDVSALATQAEIESIVKPKVLVKEAEKKLPSDTEKEDRSPSAIFSAELSKTSVVDLLYWRDIKKTGVVFGASLFLLLSLTVFSIVSVTAYIALALLSVTISFRIYKGVIQAIQKSDEGHPFRAYLESEVAISEELVQKYSNSALGHVNCTIKELRRLFLVDDLVDSLKFAVLMWVFTYVGALFNGLTLLILALISLFSVPVIYERHQAQIDHYLGLANKNVKDAMAKIQAKIPGLKRKAE

Legend:
[1] = test system: retinal ganglion cells (RGCs); experiment: Synapse assay: co-localized Bassoon/Homer synaptic puncta by immunocytochemistry; format: cell-based, Sprague-Dawley rat; conditions: 32 μM GBP added together with UCM
Excerpt: (§1) Retinal Ganglion Cells: Retinal ganglion cells (RGCs) were purified by sequential immuno-panning from P7 (postnatal day 7) Sprague-Dawley rat retinas (Charles River, Wilmington, Mass.) of either sex as previously described (Winzeler A, Wang J T., Cold Spring Harbor Protocols, 2013; 643-652). Briefly, retinas were dissected and dissociated with papain (6 U/mL, Worthington, Burlingame, Calif.). Dissociated cells were panned first with Bandeiraea Simplicifolia Lectin I (BSL, Vector laboratories, Burlingame, Calif.) coated petri dishes to remove immune cells, cell debris and fibroblasts. The unbound cells were transferred to a petri dish coated with anti-Thy1 (clone T11D7) antibody for specific isolation of RGCs. The purified RGCs were gently trypsinized and re-plated onto poly-D-Lysine (PDL) and laminin-coated glass coverslips in 24-well plates (35,000 cells/coverslip). […]
Synapse formation was assessed by immunocytological analyses of the co-localization of pre-(Bassoon) and post-synaptic (Homer) markers, and electrophysiology. […] Morphologically healthy single cells that were at least two cell diameters from their nearest neighbor were identified randomly by DAPI fluorescence. […]

[2] = test system: retinal ganglion cells (RGCs); experiment: Neurite outgrowth assay under growth-inhibiting conditions (CSPG, Nogo-A, MBP); format: cell-based, Sprague-Dawley rat
Excerpt: as §1, with “RGCs.” for “RGCs. The purified RGCs were gently trypsinized and re-plated onto poly-D-Lysine (PDL) and laminin-coated glass coverslips in 24-well plates (35,000 cells/coverslip).”
To test neurite outgrowth under pathologic (i.e. growth-inhibiting) culture conditions, the RGCs (1,500 cells/coverslip) were seeded onto coverslips that were coated with various concentrations of chondroitin sulfate proteoglycan (CSPG, EMD Millipore, Billerica, Mass.), Nogo-A (R&D Systems, Minneapolis, Minn.) or in the presence of soluble myelin basic protein (MBP, 10 ug/mL, Sigma-Aldrich, St. Louis, Mo.). […] At least 30 cells per condition were imaged and analyzed per experiment and the results presented are the average of 2-3 independent experiments. Neuronal morphology was analyzed using neurite outgrowth application module in Metamorph software (Molecular Devices). […]

Molecule | UCM-induced synapse formation in the presence of gabapentin [1] | neurite growth inhibited ([2]; at 2 μg/cm^2 coating) | coating concentration from which neurite outgrowth is hindered/blocked ([2]; coated coverslips)
NCC1(CC(=O)O)CCCCC1 [GBP, Gabapentin] | blocked the synaptogenic factors | – | –
B1 | – | more than 50% | 1 μg/cm^2
